Data taken from PMC7941734 (Cell reports, 2021).

Molecular target: His6-tagged ASF1A S166E (recombinant) (human, UniProt Q9Y294 1-204, S166E)
Assay: pull-down

His6-tagged ASF1A S166E (recombinant), sequence (Q9Y294 whole entry S166E): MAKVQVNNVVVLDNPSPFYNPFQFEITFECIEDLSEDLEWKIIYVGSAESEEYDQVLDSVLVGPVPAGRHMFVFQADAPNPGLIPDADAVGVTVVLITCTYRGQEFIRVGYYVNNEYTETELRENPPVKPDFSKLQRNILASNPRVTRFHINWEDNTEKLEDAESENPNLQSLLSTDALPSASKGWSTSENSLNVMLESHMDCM

B1: GST-tagged FHA domain of MDC1 (aa 1–158) (domain or fragment, human, UniProt Q14676 1-158, looked up)
chain: MEDTQAIDWDVEEEEETEQSSESLRCNVEPVGRLHIFSGAHGPEKDFPLHLGKNVVGRMPDCSVALPFPSISKQHAEIEILAWDKAPILRDCGSLNGTQILRPPKVLSPGVSHRLRDQELILFADLLCQYHRLDVSLPFVSRGPLTVEETPRVQGETQ
binding result: binds
